From US20020114797, “Composition and methods for modulating the length of telomeres” (Telogene Inc., published 2002)

Experiments:
[1] = target: T1, GST-UP1 (hnRNP A1 proteolytic fragment UP1) (UniProt P49312 P49312:1-196); assay: pulldown; background level recovery; 165 mM NaCl washes; also tested by gel shift (FIG. 3 lane 9); settings: tags: N-terminal GST fusion (inferred); label: 32P
Description: (§1) Following 5×1 ml washes in buffer containing 165 mM NaCl, the recovery of the labelled oligos was measured. The (TTAGGG)₃ oligonucleotide was recovered with the highest yield. A control experiment with plain beads yielded less that 10% of bound (TTAGGG)₃ oligonucleotide. A labelled DNA oligonucleotide containing the complementary sequence (CCCTAA)₃ was recovered at background level. […] UP1 associated directly with telomeric repeats carrying the TTAGGG sequence. Gel-shift assays performed with mutated oligonucleotides indicate that UP1 binds specifically to (TTAGGG)₃ oligonucleotide.
(§2) ³²P-labelled DNA oligonucleotides were mixed with Glutathione Sepharose 4B beads containing or lacking the GST-UP1 fusion protein. Following 5×1 ml washes in buffer containing 165 mM NaCl, the recovery of the labelled oligos was measured. The (TTAGGG)₃ oligonucleotide was recovered with the highest yield. A control experiment with plain beads yielded less that 10% of bound (TTAGGG)₃ oligonucleotide. A labelled DNA oligonucleotide containing the complementary sequence (CCCTAA)₃ was recovered at background level. […] Thus, UP1 can associate directly with telomeric repeats carrying the TTAGGG sequence. Furthermore, gel-shift assays performed with mutated oligonucleotides indicate that UP1 binds specifically to (TTAGGG)₃ oligonucleotide. […] It remains to be shown whether UP1 associates with telomeric repeats in vivo.

[2] = target: T1, GST-UP1 (hnRNP A1 proteolytic fragment …); assay: pulldown; glutathione Sepharose beads, washes at 165 mM NaCl; highest recovery; plain beads less than 10% of bound; settings: tags: N-terminal GST fusion (inferred); label: 32P
Description: as §1, §2

T1 sequence (P49312 1-196, one chain of several): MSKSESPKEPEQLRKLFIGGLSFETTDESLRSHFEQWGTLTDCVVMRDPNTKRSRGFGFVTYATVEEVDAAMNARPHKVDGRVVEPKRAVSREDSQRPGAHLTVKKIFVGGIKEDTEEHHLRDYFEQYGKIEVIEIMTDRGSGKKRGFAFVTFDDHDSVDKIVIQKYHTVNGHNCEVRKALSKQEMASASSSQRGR

Binder | binding result [1] | binding result [2]
CCCTAACCCTAACCCTAA (ssDNA) [complementary C-strand (CCCTAA)3] | no binding | –
TTAGGGTTAGGGTTAGGG (ssDNA) [vertebrate telomeric (TTAGGG)3] | – | binds
